From a protein production outcome set (Wang et al. 2014) come the findings set out here.
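Also: failed if final PepcDB status was selected cloned or expressed and not failed if soluble or beyond.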

The data set can be described thus: label from the status in PepcDB records.
“MEIVFLGGAKEVGASCVLIKAGGKNILLDSGIRMKEDKLPNLQLLRELGGADVCLISHAHLDHIGSLPLIAREYPHIFFYTNQPTKDLIKVLLYDSLKIMDAKEDEIPIYAEKNVEDLLDRTITYGFNYTFEPLEGIKVTFFPAGHILGASMIFIQTQEGSVLYTGDFSTDKQLTVDKASIPKIRPDVVICESTYGDRLHTNRNYEEERLFNSIYEFISKGGKVLIPAFAIGRAQEIILILRNYMKKKKVEFNVFIDGMVREVIRVYKNNPTFLSSRYYKKVLKGEEIFLSDNIDIITDKKQREEIMSSSDPCVIISSSGMLTGGPSVFYAEKLVENQNALIAITGYQDEESPGRKLLELTELPESERKIELNGKEYEVKCKVEKYGLSAHADRDSILGFLAMLKPKTVVFAHGSEEAISQLSDMAIKEIESAVLIPQNGEMNTISIEKPRRQLSFFNVKKLSNIEPLNEENIKSLWEYLLESKQEANHITAEHAILIWNGKQFLERDEVNRVFELLKSSPYFEQNPRKPYLFRILSRTEVENKLKPKPMEQNKMRELAFEMFKDFGLYKVGMDNENVVVTFYFNFPHIANRLEDKIKEFEEKTLWKVEVNPNINLTYAQKYLQKLLEDEGVKLLKFSYNPVINAIVVKPNKEFDSMKELCSKFLDETGIELIFDIENKEDCTARLQNKDRMEQNKALLLIDLYFENEKDKVYKKSIKEGGKYIELSFVTPFVAEKYKDKLNELSQKTGWEIRISQTINQVEMVNILKDILAKYNIDLIKNPSIYPSIREVRIKLAGEIDSNIVNEIANEFYDRTGFYLKI”: the protein production entry is “failed”.
Take “MEKAGMHRTLNYRLRFDIPLVGKDCEYALVQDLPASVYISTDELDDLQRLKRLNAIYPKFVNIEVATERAQPFSVLLRGTPKITESLALPVHFRYHAPSDKRLAATVAIPLPELYLNCPMADSALIENELVARPDKLYCLNAPESRFDENHIKDGQPTTMANLERCNWRRVHVDCQLKMPLRAEIPVGHASAYGPVLCGTILLGWSLALWTIIHSMANTRRINQRLNEQRLLQQKVK”: the protein production entry is “failed”.
As for “MEKEMEDKEEFDEGEIEYTSYAGEHHLPLIMSLVDQELSEPYSIFTYRYFVYLWPQLCFLAFHKGKCVGTIVCKMGDHRQTFRGYIAMLVVIKPYRGRGIASELVTRAIKAMMESGCEEVTLEAEVSNKGALALYGRLGFIRAKRLYHYYLNGMDAFRLKLLFPKPRVPQIPSQVQTQQEYETFPRPRVP”, the protein production result is reported as “failed”.
For “MEKFMYSLGVSKKDKIYKDLLKIAIPTAIEFFLFNFISLTDNAMVAYLGDYPVAGVSLANKFFELFVTIGFSMAGAYNIIATRQYNQGDFKSFRNTFFISILTIILFSFPFILISIVNPFFLLRLISNDERAVYYGAAYLNIAIFSFVFAIIKGLIANALKVVEIVKFQVYISVFSVLLNFVFNYIFIFVFHMGVVGAAIATTVIRTLELIVYLVCTAFNKNSILHFKLDDLNINIKPFAQLIKFFIPILLNEFAWFFGYLVLTSIFIGIDTHKYAAYSISFSIYFIIFNIIHSFCISLNIMMGYEMHNSKKEIMKVAIYLSKIGLKLAFLTSFVLFIFSFFAPYIFYTLKYSHLIGIILRYSSVSAFFMALAFQYLFGFFRAGASPSFGAIMEGSVTFVYTIPIAFVLANYTNLPFEIIVFIPSLEDAIKLVVSLPYFYSERWIKSV”, the protein production result is listed as “failed”.
For the sequence “MEKILDLLMSFVKEDEGKLDLASFPLRNTTAGAHLLLKTENVVASGIEVSRMFLEKMGLLSKFNVEDGEYLEGTGVIGEIEGNTYKLLVAERTLLNVLSVMFSVATTTRRFAEKLKHAKIAATRKILPGLGVLQKIAVVHGGGDPHRLDLSGCVMIKDNHLKMYGSAERAVQEVRKIIPFTTKIEVEVENLEDALRAVEAGADIVMLDNLSPEEVKDISRRIKDINPNVIVEVSGGITEENVSLYDFETVDVISSSRLTLQEVFVDLSLEIQR”, the protein production result was “not failed”.
Take “MEKILDNIDKSMNIIISLFTIYNLIRGFWLNKNKKQLEKQREDLQKKLHQQNISNNNNISNSFNTTIHNETNIKNEIIDINQDLKNTLKSRNTSRNIAYIFTIFLFVLSFILYVIHYFKEQFKGYTIADFINSFIPSFEKLTDILTISYKSAIIVLLIINLIIAVLVILISMLKLKLKWRVAVSSLLYGILNYYVLISASSIDSKDIHYSIQEPKLSFIISFLYLMVGFITAFFSNYILYSYLFNSEFEDELFNQTIKRFFIWLALTVLFAFLSFINYHNGLQITLNFIKNLLNLI”: the protein production result was “failed”.
